Source: IntAct's records for PubMed 9025305

Legend:
rbp1a_arath RANBP1A = rbp1a_arath RANBP1A (UniProt Q9LMK7)
rbp1b_arath RANBP1B = rbp1b_arath RANBP1B (UniProt Q8RWG8)
Chain of rbp1b_arath RANBP1B (Q8RWG8 whole entry): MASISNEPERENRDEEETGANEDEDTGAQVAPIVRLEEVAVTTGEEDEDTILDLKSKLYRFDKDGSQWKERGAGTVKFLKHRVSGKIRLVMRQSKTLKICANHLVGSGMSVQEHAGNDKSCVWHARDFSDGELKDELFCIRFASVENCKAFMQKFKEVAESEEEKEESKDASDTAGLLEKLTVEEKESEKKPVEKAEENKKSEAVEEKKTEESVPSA

Chain of GTP-binding nuclear protein Ran-1 (Arabidopsis thaliana (Mouse-ear cress)), P41916 T24D (P41916 whole entry T24D): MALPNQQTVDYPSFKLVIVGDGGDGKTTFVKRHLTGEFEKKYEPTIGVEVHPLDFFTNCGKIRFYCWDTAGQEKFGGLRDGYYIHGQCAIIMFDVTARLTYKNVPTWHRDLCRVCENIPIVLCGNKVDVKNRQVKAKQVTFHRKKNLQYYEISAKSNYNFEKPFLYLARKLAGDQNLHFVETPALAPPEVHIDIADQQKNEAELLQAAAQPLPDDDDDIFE
Chain of rbp1a_arath RANBP1A (Q9LMK7 whole entry): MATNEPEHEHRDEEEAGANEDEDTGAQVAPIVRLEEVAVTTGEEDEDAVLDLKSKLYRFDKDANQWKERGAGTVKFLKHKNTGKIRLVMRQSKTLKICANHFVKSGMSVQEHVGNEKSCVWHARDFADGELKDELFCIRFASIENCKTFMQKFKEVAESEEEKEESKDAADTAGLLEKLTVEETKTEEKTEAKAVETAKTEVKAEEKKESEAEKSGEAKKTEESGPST

effect of a mutation on the interaction (rbp1a_arath RANBP1A): disrupting interaction | effect of a mutation on the interaction (rbp1b_arath RANBP1B): disrupting interaction
Substance: GTP-binding nuclear protein Ran-1 (Arabidopsis thaliana (Mouse-ear cress)), P41916 T24D
